In US20260158070A1, “COMPOSITIONS AND METHODS FOR THE TREATMENT AND DIAGNOSIS OF CANCERS ASSOCIATED WITH SURFACE K-RAS” (UNIVERSITY OF MARYLAND, BALTIMORE, priority 2023, published 2026):

Experiments:
[1] = tested on: Panc-1 (K-Ras G12D mutant); test: Growth and viability of pancreatic cancer cells cultured with R11.1.6 constructs (cell count, Trypan blue); assay type: cell-based, human; details: Panc-1, 20,000 cells/well, counted after 5 days of culture
Procedure: We next evaluated growth as well as viability of two pancreatic cancer cell lines driven by either G12D (Panc-1) or G12C (MiaPaca-2) mutant K-Ras in vitro. We plated 20,000 cells/well in Dulbecco's modified Eagles media (DMEM) with 10% fetal bovine serum (FBS) in a flat bottom 96 well plate and counted cells after 5 days of culture. Viability of cells were calculated based on Trypan blue dye exclusion method, where dead cells were blue due to uptake of the viability dye and live cells were not stained. Viability was measured by using Countess II FL cell viability and cell counter instrument by Invitrogen (ThermoFisher USA).
Further evaluation of growth inhibition was performed with control Sulfolobus solfataricus-derived proteins of similar molecular weight. […] We started with 200,000 cells in a 96 well V-bottom plate and used BD phosflow buffer set III (BD biosciences, catalog number 558050) to stabilize and optimize the phosphor moiety. Next, we stained the cells with anti-phospho-Akt (ser473, Clone D9E) PE conjugated (Cell Signaling Technologies, Catalog number 5315S) at a concentration of 0.125 ug/100 ul or anti-phosho-ERK1/2, PE conjugated (ThermoFisher USA catalog number 12-9109-42) at a concentration of 0.125 ug/100 ul. Cells were washed in FACS staining buffer and run in a LSR Fortessa II flow cytometer (BD Biosciences, USA). Acquisition was done was using FACS DIVA software (BD Biosciences) and analysis was performed in FlowJo software (Tree Star, OR, USA). This was a significant finding as both Akt and ERK1/2 are important downstream molecules of K-Ras signaling, like that described for small molecule inhibitors of K-Ras (PMID: 12509763) (FIG. 1g).

[2] = tested on: Panc-1 (G12D mutant K-Ras); test: Localization / surface binding of His-tagged constructs by anti-His flow cytometry and confocal microscopy; assay type: cell-based, human
Excerpt: However, we considered that the small 7 kDa size of this scaffolding protein and disorganized cell membrane of malignantly transformed cells may allow for cytoplasmic penetration even in the absence of a cell penetrating peptide. To evaluate this possibility, we explored the cellular location of the R11.1.6 constructs by flow cytometry and confocal microscopy. For flow cytometry experiments, cells were stained first with Live/Dead far red fixable staining kit (ThermoFisher USA, catalog number L10120). Specifically, 0.2-0.4×10^6 cells were plated in a V bottom plate and 100 ul of the dye (1:1000 dilution of stock concentration following manufacturer's protocol) was added to each well and cells incubated in room temperature for 15 mins. Next cells were washed with PBS containing 2.5% FBS and 0.1% sodium azide (FACS buffer). Cells were then surface stained by adding 100 ul/well of anti-His PE labelled antibody (mouse anti-human antibody, BioLegend, CA, USA Catalog #362603) at a concentration of 10 μg/ml. Cells were washed twice with FACS buffer and fixed by cytofix buffer (BD biosciences catalog number 554655). […] Cells were acquired using LSR Fortessa II flow cytometer using FACS DIVA software (BD Biosciences USA) and analyzed using FlowJo (Tree Star USA). […]

Row | Molecule | growth and viability [1] | binding to the tumor cell surface (anti-His staining) [2]
1 | M11.1.2: a scaffolding protein that binds mouse serum albumin (SEQ ID NO: 7) (protein) ATVKYTYRGEEKRVDISKIKWVNRWGQHLAFKYDKGGGAAGYGWVSEKDAPKELLQMLEKR | none of these control constructs could inhibit tumor growth | –
2 | E11.4.1: scaffold protein which binds human EGFR (SEQ ID NO: 8) (protein) ATVKFTYQGEEKQVDISKIMYVIRGGQRIAFGYDEGDGAWGDGIVSEKDAPKELLQMLEKQ | none of these control constructs could inhibit tumor growth | bind to the surface of tumor cells
3 | mutated form of R11.1.6: R11.1.6 with codons in the regions that contact the K-RAS mutant scrambled to prevent binding (SEQ ID NO: 6) (protein) ATVKFTHQGEEKQVDISKIKFVWRKGYVRIWGYDEDGGWGAGKYVSEKDAPKELLQMLKKR | none of these control constructs could inhibit tumor growth | –
